From patent publication US20220281982A1

Biological target: NKG2D (human) (UniProt P26718)
Assay: cell-based or functional assay

Sequence of UniProt P26718 (P26718 whole entry): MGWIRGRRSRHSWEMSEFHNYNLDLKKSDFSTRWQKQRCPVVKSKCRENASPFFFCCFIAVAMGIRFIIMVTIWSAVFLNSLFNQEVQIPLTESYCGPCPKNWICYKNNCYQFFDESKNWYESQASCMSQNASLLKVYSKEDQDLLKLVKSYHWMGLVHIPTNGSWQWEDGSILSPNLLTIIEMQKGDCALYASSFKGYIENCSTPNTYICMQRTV

B1: anti-NKG2D-anti-CS1 bispecific antibody (bispecific antibody, part only; not given: anti-CS1 scFv and linkers, part only)
chain, part: QVQLVESGGGLVKPGGSLRLSCAASGFTFSSYGMHWVRQAPGKGLEWVAFIRYDGSNKYYADSVKGRFTISRDNSKNTLYLQMNSLRAEDTAVYYCAKDRGLGDGTYFDYWGQGTTVTVSSQSALTQPASVSGSPGQSITISCSGSSSNIGNNAVNWYQQLPGKAPKLLIYYDDLLPSGVSDRFSGSKSGTSAFLAISGLQSEDEADYYCAAWDDSLNGPVFGGGTKLTVLPSGQAGAAASESLFVSNHAYHHHHHH
A Ki67 expression of T cells cultured without IL-2 of 80% was found for B1 in this work.
